Data from patent US20240317847A1 (Bayer, published 2024).

How the values were obtained:
human IL-11 [1] = biological target: T1, human IL-11 (human, UniProt P20809 22-199); experiment: cell-based or functional assay
T1 sequence: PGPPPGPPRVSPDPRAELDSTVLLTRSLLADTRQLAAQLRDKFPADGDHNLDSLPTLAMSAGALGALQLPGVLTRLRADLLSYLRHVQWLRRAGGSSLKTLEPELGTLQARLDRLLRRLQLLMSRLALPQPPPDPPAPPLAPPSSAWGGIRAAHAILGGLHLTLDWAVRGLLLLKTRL

murine IL-11 [2] = biological target: T2, murine IL-11 (mouse, UniProt P47873 22-199); experiment: cell-based or functional assay
T2 sequence: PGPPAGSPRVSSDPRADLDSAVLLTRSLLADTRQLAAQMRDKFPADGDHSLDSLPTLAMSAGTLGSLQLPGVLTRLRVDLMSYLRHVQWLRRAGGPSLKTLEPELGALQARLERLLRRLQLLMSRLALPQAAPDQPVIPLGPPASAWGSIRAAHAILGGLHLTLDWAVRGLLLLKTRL

cynomolgus IL-11 [3] = biological target: T3, cynomolgus IL-11 (cynomolgus, UniProt P20808 22-199); experiment: cell-based or functional assay
T3 sequence: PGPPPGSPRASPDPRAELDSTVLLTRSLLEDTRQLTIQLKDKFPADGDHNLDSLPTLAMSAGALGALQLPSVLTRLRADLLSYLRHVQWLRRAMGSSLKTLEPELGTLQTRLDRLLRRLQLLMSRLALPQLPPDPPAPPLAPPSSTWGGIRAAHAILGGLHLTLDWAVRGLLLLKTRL

rat IL-11 [4] = biological target: T4, rat IL-11 (rat, UniProt Q99MF5 22-199); experiment: cell-based or functional assay
T4 sequence: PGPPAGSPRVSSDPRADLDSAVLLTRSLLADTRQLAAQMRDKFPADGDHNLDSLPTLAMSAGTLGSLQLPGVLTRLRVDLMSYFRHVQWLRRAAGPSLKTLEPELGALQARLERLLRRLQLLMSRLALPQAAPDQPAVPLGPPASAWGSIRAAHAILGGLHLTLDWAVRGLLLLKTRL

human IL-11 [5] = biological target: T1, human IL-11; experiment: SPR 37 C, antibody captured, IL-11 as analyte
Method: (§1) To assess the binding kinetics and affinity of anti-IL-11 antibodies as well as their species cross-reactivity profile, binding assays were conducted using surface plasmon resonance (SPR). Binding assays were performed on a Biacore T200 instrument or on a Biacore 8K+ instrument (Cytiva) at 37° C. using assay buffer HBS EP+, 300 mM NaCl, 1 mg/ml BSA, 0.05% NaN3. Antibodies were captured either via anti-human Fc IgGs (“Human antibody capture kit”, Order No. BR100839, Cytiva) or via anti-mouse Fc IgGs (“Mouse antibody capture kit, Order No. BR100383, Cytiva) covalently amine coupled to a Series S CM5 sensor chip (Cytiva) depending on the isotype. The amine coupling was carried out according to the manufacturer's instructions using 1-ethyl-3-(3-dimethylaminopropyl) carbodiimide hydrochloride (EDC), N-hydroxysuccinimide (NHS) and ethanolamine HCl, pH 8.5 (“Amine Coupling Kit” BR-1000-50, Cytiva.). Human, mouse, cynomolgus or rat IL-11 was used as analyte at several dilutions within the concentration range from 0.05-200 nM. For binding assays with only one concentration 200 nM IL-11 was used. The sensor surface was regenerated with glycine pH 1.7 after each antigen injection. Obtained sensorgrams were double referenced (subtraction of reference flow cell signal and buffer injection) and were fitted to a 1:1 Langmuir binding model to derive kinetic data using the Biacore T200 Evaluation software or the Biacore Insight software. If no value is reported, there was either no binding or very low binding and multiphasic binding behavior. Values below 1E-12 were considered to be below the dynamic range of the instrument and set to <1E-12.

murine IL-11 [6] = biological target: T2, murine IL-11; experiment: SPR 37 C, antibody captured, IL-11 as analyte
Method: as §1

cynomolgus IL-11 [7] = biological target: T3, cynomolgus IL-11; experiment: SPR 37 C, antibody captured, IL-11 as analyte
Method: as §1

rat IL-11 [8] = biological target: T4, rat IL-11; experiment: SPR 37 C, antibody captured, IL-11 as analyte
Method: as §1

human IL-11 [9] = biological target: T1, human IL-11; experiment: Di-complex ELISA, competitor canine IL11RA-Fc on coated IL-11;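 as to Efficacy (%): signal drop relative to signal at lowest antibody concentration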
Method: (§2) The assay is performed using streptavidin coated microtiter plates (Greiner bio-one, #781997). In a first step, 10 nM biotinylated mouse IL-11 (Invigate, Germany, e.g., lot #C210819-09) or human IL-11 (Invigate, Germany, e.g., lot #C121021-19) is coated in 25 μl PBS on the plate at 4° C. overnight. Next day, the plate is washed three times with 50 μl PBST and then blocked with 50 μl SmartBlock (Candor, #113125) for one hour at room temperature (RT). After additional three washes with PBST, 25 μl of a mixture of the murine anti IL-11 antibody and recombinant canine IL11RA-Fc fusion protein (Sino Biological, #70078-D02H) in PBS-T, 10% Smartblock are added simultaneously to the plate and incubated for one hour at RT. […] After three additional washes with PBS-T, 25 μl anti-human-POD (Sigma, #A0170) in PBS-T, 10% Smartblock is added and incubated for 1 hour at RT. After a final three washes with PBS-T, 25 μl AmplexRed (Fisher Scientific, A12222), 1/1000 in PBS, 0,003% H₂O₂, is added as substrate and incubated for 15 min at RT in the dark. Then, the fluorescence is measured with a plate reader at 535/595 nm. Signals from dose responses were used to calculate IC50 values (GraphPad Prism). Efficacy was calculated as [(signal measured at lowest antibody concentration−signal measured at the highest antibody concentration)×100] divided by (signal measured at lowest antibody concentration−signal measured in the absence of IL11Ra).
(§3) IgG converted antibodies were subjected to the experimental assay procedure described in Example 18.

murine IL-11 [10] = biological target: T2, murine IL-11; experiment: as above
Method: as §2, §3

B1: TPP-29528 (antibody, mouse IgG1)
heavy: EVQLLESGGGLVQPGGSLRLSCAASGFTFSSYGMHWVRQAPGKGLEWVAVISYDGSYKYYADSVKGRFTISRDNSKNTLYLQMNSLRAEDTAVYYCAAGVPDYWGQGTLVTVSSAKTTPPSVYPLAPGSAAQTNSMVTLGCLVKGYFPEPVTVTWNSGSLSSGVHTFPAVLQSDLYTLSSSVTVPSSTWPSETVTCNVAHPASSTKVDKKIVPRDCGCKPCICTVPEVSSVFIFPPKPKDVLTITLTPKVTCVVVDISKDDPEVQFSWFVDDVEVHTAQTQPREEQFNSTFRSVSELPIMHQDWLNGKEFKCRVNSAAFPAPIEKTISKTKGRPKAPQVYTIPPPKEQMAKDKVSLTCMITDFFPEDITVEWQWNGQPAENYKNTQPIMDTDGSYFVYSKLNVQKSNWEAGNTFTCSVLHEGLHNHHTEKSLSHSPGK
light: QSVLTQPPSASGTPGQRVTISCSGSSSNIGSDYDVHWYQQLPGTAPKLLIYSNEERPSGVPDRFSGSKSGTSASLAISGLRSEDEADYYCSAWDSSLSGPVFGGGTKLTVLGQPKSSPSVTLFPPSSEELETNKATLVCTITDFYPGVVTVDWKVDGTPVTQGMETTQPSKQSNNKYMASSYLTLTARAWERHSSYSCQVTHEGHTVEKSLSRADCS
notes: mIgG1, Lambda
RGA Efficacy (%) (human IL-11 [1]): 81.2% | RGA Efficacy (%) (murine IL-11 [2]): 96.9% | RGA IC50 (murine IL-11 [2]): 0.89 nM | RGA Efficacy (%) (cynomolgus IL-11 [3]): 87.8% | RGA IC50 (cynomolgus IL-11 [3]): 0.44 nM | RGA Efficacy (%) (rat IL-11 [4]): 89.9% | RGA IC50 (rat IL-11 [4]): 1.8 nM | Kd (human IL-11 [5]): 0.34 nM | Kd (murine IL-11 [6]): 0.23 nM | Kd (cynomolgus IL-11 [7]): 0.2 nM | Kd (rat IL-11 [8]): 0.33 nM | Efficacy (%) (human IL-11 [9]): 36.3% | Efficacy (%) (murine IL-11 [10]): 43.4% | IC50 (murine IL-11 [10]): 2.6 nM

B2: TPP-29523 (antibody, mouse IgG1)
heavy: QVQLVESGGGVVQPGRSLRLSCAASGFTFSHYDMHWVRQAPGKGLEWVAVISYEGSVKFYADSVKGRFTISRDNSKNTLYLQMNSLRAEDTAVYYCARTPGFHFDYWGQGTLVTVSSAKTTPPSVYPLAPGSAAQTNSMVTLGCLVKGYFPEPVTVTWNSGSLSSGVHTFPAVLQSDLYTLSSSVTVPSSTWPSETVTCNVAHPASSTKVDKKIVPRDCGCKPCICTVPEVSSVFIFPPKPKDVLTITLTPKVTCVVVDISKDDPEVQFSWFVDDVEVHTAQTQPREEQFNSTFRSVSELPIMHQDWLNGKEFKCRVNSAAFPAPIEKTISKTKGRPKAPQVYTIPPPKEQMAKDKVSLTCMITDFFPEDITVEWQWNGQPAENYKNTQPIMDTDGSYFVYSKLNVQKSNWEAGNTFTCSVLHEGLHNHHTEKSLSHSPGK
light: QSVLTQPPSASGTPGQRVTISCSGSSSNIGSNYVNWYQQLPGTAPKLLIYYDDLRPSGVPDRFSGSKSGTSASLAISGLRSEDEADYYCSAWDDSLSGVVFGGGTKLTVLGQPKSSPSVTLFPPSSEELETNKATLVCTITDFYPGVVTVDWKVDGTPVTQGMETTQPSKQSNNKYMASSYLTLTARAWERHSSYSCQVTHEGHTVEKSLSRADCS
notes: mIgG1, Lambda
RGA Efficacy (%) (human IL-11 [1]): 100% | RGA IC50 (human IL-11 [1]): 1.6 nM | RGA Efficacy (%) (murine IL-11 [2]): 101% | RGA IC50 (murine IL-11 [2]): 1.4 nM | RGA Efficacy (%) (cynomolgus IL-11 [3]): 97.2% | RGA IC50 (cynomolgus IL-11 [3]): 0.68 nM | RGA Efficacy (%) (rat IL-11 [4]): 101% | RGA IC50 (rat IL-11 [4]): 1.4 nM | Kd (human IL-11 [5]): 0.0026 nM | Kd (murine IL-11 [6]): 0.004 nM | Kd (cynomolgus IL-11 [7]): 1.1 nM | Kd (rat IL-11 [8]): 0.02 nM | Efficacy (%) (human IL-11 [9]): 2% | Efficacy (%) (murine IL-11 [10]): 4.8%

B3: TPP-29519 (antibody, mouse IgG1)
heavy: QVQLVESGGGVVQPGRSLRLSCAASGFTFSHYDMHWVRQAPGKGLEWVAVISYHGSVKFYADSVKGRFTISRDNSKNTLYLQMNSLRAEDTAVYYCARTPGFHFDYWGQGTLVTVSSAKTTPPSVYPLAPGSAAQTNSMVTLGCLVKGYFPEPVTVTWNSGSLSSGVHTFPAVLQSDLYTLSSSVTVPSSTWPSETVTCNVAHPASSTKVDKKIVPRDCGCKPCICTVPEVSSVFIFPPKPKDVLTITLTPKVTCVVVDISKDDPEVQFSWFVDDVEVHTAQTQPREEQFNSTFRSVSELPIMHQDWLNGKEFKCRVNSAAFPAPIEKTISKTKGRPKAPQVYTIPPPKEQMAKDKVSLTCMITDFFPEDITVEWQWNGQPAENYKNTQPIMDTDGSYFVYSKLNVQKSNWEAGNTFTCSVLHEGLHNHHTEKSLSHSPGK
light: QSVLTQPPSASGTPGQRVTISCSGSSSNIGSNYVSWYQQLPGTAPKLLIYYDDLRPSGVPDRFSGSKSGTSASLAISGLRSEDEADYYCSAWDDSLSGVVFGGGTKLTVLGQPKSSPSVTLFPPSSEELETNKATLVCTITDFYPGVVTVDWKVDGTPVTQGMETTQPSKQSNNKYMASSYLTLTARAWERHSSYSCQVTHEGHTVEKSLSRADCS
notes: mIgG1, Lambda
RGA Efficacy (%) (human IL-11 [1]): 100% | RGA IC50 (human IL-11 [1]): 1.8 nM | RGA Efficacy (%) (murine IL-11 [2]): 101% | RGA IC50 (murine IL-11 [2]): 1.2 nM | RGA Efficacy (%) (cynomolgus IL-11 [3]): 99.2% | RGA IC50 (cynomolgus IL-11 [3]): 0.89 nM | RGA Efficacy (%) (rat IL-11 [4]): 99.7% | RGA IC50 (rat IL-11 [4]): 1 nM | Kd (human IL-11 [5]): 0.01 nM | Kd (murine IL-11 [6]): 0.0035 nM | Kd (cynomolgus IL-11 [7]): 0.61 nM | Kd (rat IL-11 [8]): 0.023 nM | Efficacy (%) (human IL-11 [9]): 6.8% | Efficacy (%) (murine IL-11 [10]): 12.8%
